Experimental data published in paper PMC6925134.

Columns and labels:
RNF208 [1] = target: RNF208 (UniProt Q9H0X6); assay: anti-Flag co-IP, immunoblot; details: reference: wild type; sites S39
RNF208 [2] = target: RNF208 (UniProt Q9H0X6); assay: anti-Flag co-IP, Myc immunoblot; details: reference: wild type; sites S39

Substance: Vimentin (from UniProt P08670) S39A
- binding against the reference (RNF208 [1]): weaker
- binding against the reference (RNF208 [2]): lost
